Source: patent US20260242735A1 (UNIVERSIT T BASEL, published 2026)

What was measured:
Assay in all cases: flow cytometry, transfected cells
[1] = target: human CD33 P46Y (human, UniProt P20138 18-364)
[2] = target: human CD33 P46D (human, UniProt P20138 18-364)
[3] = target: human CD33 P19D (human, UniProt P20138 18-364)
[4] = target: human CD33 N20G (human, UniProt P20138 18-364)
[5] = target: human CD33 N20T (human, UniProt P20138 18-364)
[6] = target: human CD33 N20P (human, UniProt P20138 18-364)
Chain of human CD33 N20P (P20138 18-364 N20P limits assumed): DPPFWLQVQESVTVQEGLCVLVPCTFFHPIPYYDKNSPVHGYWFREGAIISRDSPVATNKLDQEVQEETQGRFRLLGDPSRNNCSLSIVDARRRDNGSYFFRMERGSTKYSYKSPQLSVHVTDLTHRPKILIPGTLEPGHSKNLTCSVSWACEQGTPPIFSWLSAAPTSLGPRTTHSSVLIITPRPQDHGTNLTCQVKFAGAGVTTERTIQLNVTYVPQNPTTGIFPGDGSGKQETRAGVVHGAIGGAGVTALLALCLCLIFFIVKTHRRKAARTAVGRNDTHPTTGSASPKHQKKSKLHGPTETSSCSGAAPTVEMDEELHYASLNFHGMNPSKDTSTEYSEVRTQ

[7] = target: human CD33 N20Y (human, UniProt P20138 18-364)
Chain of human CD33 N20Y (P20138 18-364 N20Y limits assumed): as the sequence (P20138 18-364 N20P limits assumed) above, with P3Y counted along it

[8] = target: human CD33 N20W (human, UniProt P20138 18-364)
Chain of human CD33 N20W (P20138 18-364 N20W limits assumed): as the sequence (P20138 18-364 N20P limits assumed) above, with P3W counted along it

[9] = target: human CD33 N20Q (human, UniProt P20138 18-364)
Chain of human CD33 N20Q (P20138 18-364 N20Q limits assumed): as the sequence (P20138 18-364 N20P limits assumed) above, with P3Q counted along it

[10] = target: human CD33 N20K (human, UniProt P20138 18-364)
Chain of human CD33 N20K (P20138 18-364 N20K limits assumed): as the sequence (P20138 18-364 N20P limits assumed) above, with P3K counted along it

[11] = target: human CD33 N20V (human, UniProt P20138 18-364)
Chain of human CD33 N20V (P20138 18-364 N20V limits assumed): as the sequence (P20138 18-364 N20P limits assumed) above, with P3V counted along it

[12] = target: human CD33 F21S (human, UniProt P20138 18-364)
Chain of human CD33 F21S (P20138 18-364 F21S limits assumed): as the sequence (P20138 18-364 N20P limits assumed) above, with P3N, F4S counted along it

[13] = target: human CD33 F21I (human, UniProt P20138 18-364)
Chain of human CD33 F21I (P20138 18-364 F21I limits assumed): as the sequence (P20138 18-364 N20P limits assumed) above, with P3N, F4I counted along it

[14] = target: human CD33 W22L (human, UniProt P20138 18-364)
Chain of human CD33 W22L (P20138 18-364 W22L limits assumed): as the sequence (P20138 18-364 N20P limits assumed) above, with P3N, W5L counted along it

[15] = target: human CD33 W22N (human, UniProt P20138 18-364)
Chain of human CD33 W22N (P20138 18-364 W22N limits assumed): as the sequence (P20138 18-364 N20P limits assumed) above, with P3N, W5N counted along it

Measured: binding result

Chain of human CD33 P46D (P20138 18-364 P46D limits assumed): as the sequence (P20138 18-364 N20P limits assumed) above, with P3N, P29D counted along it
Chain of human CD33 N20T (P20138 18-364 N20T limits assumed): as the sequence (P20138 18-364 N20P limits assumed) above, with P3T counted along it
Chain of human CD33 N20G (P20138 18-364 N20G limits assumed): as the sequence (P20138 18-364 N20P limits assumed) above, with P3G counted along it
Chain of human CD33 P46Y (P20138 18-364 P46Y limits assumed): as the sequence (P20138 18-364 N20P limits assumed) above, with P3N, P29Y counted along it
Chain of human CD33 P19D (P20138 18-364 P19D limits assumed): as the sequence (P20138 18-364 N20P limits assumed) above, with P2D, P3N counted along it

B1: Refmab #3 (antibody, human IgG1, V domains shown)
VH: QVQLVQSGAEVKKPGSSVKVSCKASGYTFTDYNMHWVRQAPGQGLEWIGYIYPYNGGTGYNQKFKSKATITADESTNTAYMELSSLRSEDTAVYYCARGRPAMDYWGQGTLVTVSS
VL: DIQMTQSPSSLSASVGDRVTITCRASESVDNYGISFMNWFQQKPGKAPKLLIYAASNQGSGVPSRFSGSGSGTDFTLTISSLQPDDFATYYCQQSKEVPWTFGQGTKVEIK
no binding (tested: below 20%): all assays above
